Experimental data reported in patent US20260055153A1 (published 2026).

Biological target: R1-E5
Assay: BLI

B1: IL-15Rβ (receptor)
chain: AVNGTSQFTCFYNSRANISCVWSQDGALQDTSCQVHAWPDRRRWNQTCELLPVSQASWACNLILGAPDSQKLTTVDIVTLRVLCREGVRWRVMAIQDFKPFENLRLMAPISLQVVHVETHRCNISWEISQASHYFERHLEFEARTLSPGHTWEEAPLLTLKQKQEWICLETLTPDTQYEFQVRVKPLQGEFTTWSPWSQPLAFRTKPAALGKD
Kd: 43 nM
